# According to the RNAGym collection of RNA variant scans (doi:10.7554/elife.90254):
# B1: OR4K15 (parent)
# chain: GUUAACGGUCAUAGGCCAUGGAAACUAGGAGCACCAUUUCGCUGCCAGUGAAGAAAUGAACAAAGAAAAUCUGGGCCAGGCAGGCAUCAAAAGAAAUAGUCUUGCGCUCAACCAGAAAGUCUGUAAUCAUUUUAAGGGUA
# Variants of: B1
# Experiment: self-cleavage, relative activity (ratio to wild type); higher = more cleavage; in vitro, sequencing; the parent is a self-cleaving ribozyme
row,Variant,self-cleavage
1,A11G U102A,0.58
2,U12A U70C,0.41
3,A11U U12C,0.97
4,U12C U38G,1.22
5,U12C U38C,1.73
6,A11U G84A,2.42
7,A11U A51G,1.48
8,U12C A118G,0.61
9,A11U U120C,0.69
10,A11U A78G,0.31
11,A11U A78U,0.49
12,U12C U108C,0.03
13,U12C A51G,0.87
14,U12A A63G,0.6
15,A11U A36U,0.78
16,U12C A126C,0.42
17,U12C A126U,0.52
18,A11G U103A,0.77
19,A11U A90U,1.19
20,A11U U43C,1.44
21,U12A A52U,1.23
22,U12C G31U,1.48
23,U12A A140G,1.5
24,U12C A110U,1.26

row,Variant,self-cleavage
1,U12A A135G,1.47
2,U12A A135U,1.29
3,U12C A96U,1.32
4,U12C G28U,0.66
5,U12A U122A,0.62
6,U12C U122G,2.09
7,U12C A135G,1.25
8,U12C A135C,0.84
9,A11G U70G,0.6
10,U12A C34U,0.53
11,A11U U139C,1.23
12,A11U C16U,2.22
13,U12G U37C,1.48
14,A11G U131G,1.52
15,A11U G15A,1.97
16,A13C A60G,1.39
17,U12C U37C,1.04
18,A11U A63U,1.56
19,A11U A126G,0.81
20,U12A A94G,1.12
21,U12A A33U,1.4
22,U12A U108C,0.04
23,U12G A24G,1.1
24,U12C A63C,1.12

row,Variant,self-cleavage
1,U12C A63G,1.43
2,U12A U131C,2.37
3,A11U A82U,0.31
4,A11U A98U,1.82
5,U12A G138A,1.5
6,U12A A118G,1.04
7,A11U A125G,1.3
8,U12C A86G,0.8
9,U12A A78G,0.2
10,U12G C105U,0.22
11,U12A U102C,1.73
12,A13C A51U,1.65
13,U12C A66G,0.97
14,A11U A23U,0.71
15,U12C A92G,0.58
16,A11U A94G,0.71
17,U12C U43C,1.34
18,U12C U43A,0.93
19,U12C A23U,0.97
20,U12C G41A,1.35
21,A11G U87C,1.14
22,U12C A47U,0.93
23,U12G A13G,1.09
24,U12A A91G,1.57

row,Variant,self-cleavage
1,U12C A89C,1.09
2,U12C U39C,1.21
3,A11U A52C,1.27
4,A11U G58U,0.86
5,U12C A22G,0.98
6,A11U A135U,0.98
7,A11U U49A,0.68
8,A11U U49G,1.14
9,U12C U127C,0.62
10,A11U A62G,0.96
11,A11U A62C,0.99
12,A11G U57C,0.63
13,U12C U97A,1.6
14,A11G U120A,0.58
15,U12C A90G,0.97
16,U12A A95G,1.29
17,U12C U19A,1.05
18,U12C U100G,1.34
19,U12C U100C,1.4
20,A11U C40A,1.2
21,A11U A67G,1.5
22,U12A A116G,0.49
23,U12C U131C,1.28
24,A11U G41A,0.96

row,Variant,self-cleavage
1,U12C A94U,1.8
2,U12A C109U,0.24
3,U12A U139C,1.59
4,U12A U130C,1.21
5,U12C U124C,0.67
6,A11U A129G,1.27
7,A11U A129U,0.64
8,A11U A47U,0.96
9,U12C A68G,1.21
10,A11U U102A,0.7
11,A11G U132C,1.21
12,A11G U132A,1.16
13,A11G U97G,0.34
14,U12C U130A,1.45
15,U12C A134G,1.7
16,A11U U108A,0.02
17,A11U U108C,0.01
18,U12C A98G,0.74
19,A11U A24G,1.7
20,A11U A116U,0.5
21,U12C U57G,1.33
22,U12A A59U,0.95
23,U12A A24G,0.69
24,U12G A86G,0.92

row,Variant,self-cleavage
1,U12A C77U,1.45
2,A11U U70C,0.67
3,U12G A27C,1
4,A11U U131C,1.15
5,U12C A111G,0.03
6,A11G U72C,0.21
7,U12C A82G,0.76
8,A11G U127C,0.63
9,U12C U87C,0.75
10,U12C A78G,0.31
11,A11U U37C,1.01
12,A13C,1.33
13,U12C A59U,0.65
14,U12C U120C,0.75
15,A11U A22G,1.53
16,A11G U108C,0.01
17,A11U A68G,0.99
18,A11U A13U,1.5
19,A11U A54G,0
20,A11G U100C,1.06
21,A11U A18U,1.82
22,A13C A30G,1.49
23,U12A A55U,2.25
24,U12A A55G,1.3

row,Variant,self-cleavage
1,U12A U72A,0.36
2,U12A A22C,1.51
3,U12A G31A,1.75
4,U12A U103C,0.14
5,U12C A95G,1.57
6,U12C C85A,0.75
7,U12C A30U,1.21
8,U12C A30G,1.28
9,A11U U103C,0.73
10,U12C U102A,1.94
11,U12C A56G,0.93
12,U12C A129G,0.89
13,U12C A24G,1.09
14,U12A U37C,1.96
15,U12G G138A,1.44
16,U12C A67G,1.33
17,A11U A64G,1.56
18,U12A A18G,1.65
19,A11U A33G,0.98
20,U12A U26C,2.17
21,U12C A18G,0.87
22,U12C A18U,1.3
23,U12A U38C,1.4
